Test results as given in article doi:10.1101/2024.08.08.606885.

How the values were obtained:
[1] = target: SARS-CoV-2 BA.2.86 S (Acro Biosystems, SPN-C524y) (SARS-CoV-2); assay: cryo-EM structure
[2] = target: SARS-CoV-2 JN.1 RBD (SARS-CoV-2) (UniProt P0DTC2); assay: BLI; […]; 10x kinetics buffer, […]; global fit, 1:1 binding model; […]

| Substance | stoichiometry N [1] | Kd [2] [nM] | koff [2] [s⁻¹] | kon [2] [M⁻¹ s⁻¹] |
| --- | --- | --- | --- | --- |
| SARS-CoV-2 BA.2.86 S (Acro Biosystems, SPN-C524y) (domain or fragment) | 3 |  |  |  |
| TRI2-2 homotrimeric miniprotein inhibitor (designed binder) |  | 6.19 | 0.00175 | 282000 |
